Earlier results on 6 molecules are cited in US20200069786A1, “COMPOSITION AND PROCESS FOR PREPARING VACCINE” (TREOS BIO ZRT., priority 2018, published 2020).

Where two headings read alike, the source gives them in different places.

The test system of the data set is TSA.
Setting [1] is: TSA expression rate in BLADDER cancer.
Where [2] appears, read: TSA expression rate in Cervical cancer.
[3] abbreviates: TSA expression rate in Esophageal.
The mark [4] stands for this setting: TSA expression rate in GASTRIC cancer.
Where [5] appears, read: TSA expression rate in HEAD and NECK.
The mark [6] stands for this setting: TSA expression rate in LEUKEMIAS
[7] abbreviates: TSA expression rate in LYMPHOMAS
Setting [8] is: TSA expression rate in MELANOMA
Setting [9] is: TSA expression rate in PEDIATRIC
Where [10] appears, read: TSA expression rate in PROSTATE cancer.

B1: MAGE-A3 (protein, UniProt P43357 1-314, looked up)
Melanoma-associated antigen 3: MPLEQRSQHCKPEEGLEARGEALGLVGAQAPATEEQEAASSSSTLVEVTLGEVPAAESPDPPQSPQGASSLPTTMNYPLWSQSYEDSSNQEEEGPSTFPDLESEFQAALSRKVAELVHFLLLKYRAREPVTKAEMLGSVVGNWQYFFPVIFSKASSSLQLVFGIELMEVDPIGHLYIFATCLGLSYDGLLGDNQIMPKAGLLIIVLAIIAREGDCAPEEKIWEELSVLEVFEGREDSILGDPKKLLTQHFVQENYLEYRQVPGSDPACYEFLWGPRALVETSYVKVLHHMVKISGGPHISYPPLHEWVLREGEE
For the molecule B1, the “TSA Expression Rate (ER)” value reads like this: (BRAIN) 42%; (BREAST) 28%; (HCC) 34%; (LUNG) 37%; (OVARIAN) 30%; (PANCREATIC) 11%. The “TSA Expression Rate (ER)” value (THYROID) was 22%. The “Expression Rate (ER) %” value under setting [1] is 42%; the “Expression Rate (ER) %” value (TSA expression rate in CRC) is given as 22%; the “Expression Rate (ER) %” value under setting [2] is recorded as 16%; the “Expression Rate (ER) %” value under setting [3] is listed as 66%; the “Expression Rate (ER) %” value under setting [4] is 37%; the “Expression Rate (ER) %” value under setting [5] is given as 40%. Also, the “Expression Rate (ER) %” value runs as follows: (TSA expression rate in Kidney) 27%; under setting [6], 65%; under setting [7], 17%; under setting [8], 60%; under setting [9], 76%; under setting [10], 15%.

B2: PLAC1 (protein, UniProt Q9HBJ0 23-212, looked up)
Placenta-specific protein 1: QSPMTVLCSIDWFMVTVHPFMLNNDVCVHFHELHLGLGCPPNHVQPHAYQFTYRVTECGIRAKAVSQDMVIYSTEIHYSSKGTPSKFVIPVSCAAPQKSPWLTKPCSMRVASKSRATAQKDEKCYEVFSLSQSSQRPNCDCPPCVFSEEEHTQVPCHQAGAQEAQPLQPSHFLDISEDWSLHTDDMIGSM
For the molecule B2, the “TSA Expression Rate (ER)” value (BREAST) was 4%; the “TSA Expression Rate (ER)” value (HCC) is reported as 41%; the “TSA Expression Rate (ER)” value (LUNG) was 68%; the “TSA Expression Rate (ER)” value (OVARIAN) was 21%; the “TSA Expression Rate (ER)” value (PANCREATIC) is recorded as 44%. The “Expression Rate (ER) %” value (TSA expression rate in CRC) is 27% and the “Expression Rate (ER) %” value under setting [10] is listed as 100%.

B3: SCP3a (protein, UniProt Q8IZU3 1-236, looked up)
Synaptonemal complex protein 3: MVSSGKKYSRKSGKPSVEDQFTRAYDFETEDKKDLSGSEEDVIEGKTAVIEKRRKKRSSAGVVEDMGGEVQNMLEGVGVDINKALLAKRKRLEMYTKASLKTSNQKIEHVWKTQQDQRQKLNQEYSQQFLTLFQQWDLDMQKAEEQEEKILNMFRQQQKILQQSRIVQSQRLKTIKQLYEQFIKSMEELEKNHDNLLTGAQNEFKKEMAMLQKKIMMETQQQEIASVRKSLQSMLF
For B3, where the note is “OVARIAN”, the “TSA Expression Rate (ER)” value is listed as 25%. Moreover, the “Expression Rate (ER) %” value under setting [6] is 47%.

B4: DPPA2 (protein, UniProt Q7Z7J5 1-298, looked up)
Developmental …: MSDANLDSSKKNFLEGEVDDEESVILTLVPVKDDANMEQMEPSVSSTSDVKLEKPKKYNPGHLLQTNEQFTAPQKARCKIPALPLPTILPPINKVCRDTLRDWCQQLGLSTNGKKIEVYLRLHRHAYPEQRQDMPEMSQETRLQRCSRKRKAVTKRARLQRSYEMNERAEETNTVEVITSAPGAMLASWARIAARAVQPKALNSCSIPVSVEAFLMQASGVRWCVVHGRLLSADTKGWVRLQFHAGQAWVPTTHRRMISLFLLPACIFPSPGIEDNMLCPDCAKRNKKMMKRLMTVEK
As to B4, the “TSA Expression Rate (ER)” value reads like this: (LUNG) 30%; (OVARIAN) 31%. For the same molecule, the “Expression Rate (ER) %” value by setting is: (TSA expression rate in CRC) 44%; under setting [4], 100%.

B5: MAGE-A1 (protein, UniProt P43355 1-309, looked up)
Melanoma-associated antigen 1: MSLEQRSLHCKPEEALEAQQEALGLVCVQAATSSSSPLVLGTLEEVPTAGSTDPPQSPQGASAFPTTINFTRQRQPSEGSSSREEEGPSTSCILESLFRAVITKKVADLVGFLLLKYRAREPVTKAEMLESVIKNYKHCFPEIFGKASESLQLVFGIDVKEADPTGHSYVLVTCLGLSYDGLLGDNQIMPKTGFLIIVLVMIAMEGGHAPEEEIWEELSVMEVYDGREHSAYGEPRKLLTQDLVQEKYLEYRQVPDSDPARYEFLWGPRALAETSYVKVLEYVIKVSARVRFFFPSLREAALREEEEGV
B5: the “TSA Expression Rate (ER)” value is, setting by setting: (BRAIN) 41%; (BREAST) 31%; (HCC) 56%; (LUNG) 42%; (OVARIAN) 24%; (PANCREATIC) 27%. For the same molecule, the “TSA Expression Rate (ER)” value (THYROID) was 17%. For the same molecule, the “Expression Rate (ER) %” value by setting is: under setting [1], 34%; (TSA expression rate in CRC) 14%; under setting [2], 17%; under setting [3], 46%; under setting [4], 31%; under setting [5], 23%. Also, the “Expression Rate (ER) %” value is recorded as 11% (TSA expression rate in Kidney); 20% under setting [6]; 9% under setting [7]; 37% under setting [8]; 44% under setting [9]; 13% under setting [10].

B6: SPAG1 (protein, UniProt Q07617 1-926, looked up)
Sperm-associated antigen 1: MTTKDYPSLWGFGTTKTFKIPIEHLDFKYIEKCSDVKHLEKILCVLRSGEEGYYPELTEFCEKHLQALAPESRALRKDKPAATAASFTAEEWEKIDGDIKSWVSEIKKEEDKMHFHETETFPAMKDNLPPVRGSNSCLHVGKEKYSKRPTKKKTPRDYAEWDKFDVEKECLKIDEDYKEKTVIDKSHLSKIETRIDTAGLTEKEKDFLATREKEKGNEAFNSGDYEEAVMYYTRSISALPTVVAYNNRAQAEIKLQNWNSAFQDCEKVLELEPGNVKALLRRATTYKHQNKLREATEDLSKVLDVEPDNDLAKKTLSEVERDLKNSEAASETQTKGKRMVIQEIENSEDEEGKSGRKHEDGGGDKKPAEPAGAARAAQPCVMGNIQKKLTGKAEGGKRPARGAPQRGQTPEAGADKRSPRRASAAAAAGGGATGHPGGGQGAENPAGLKSQGNELFRSGQFAEAAGKYSAAIALLEPAGSEIADDLSILYSNRAACYLKEGNCSGCIQDCNRALELHPFSMKPLLRRAMAYETLEQYGKAYVDYKTVLQIDCGLQLANDSVNRLSRILMELDGPNWREKLSPIPAVPASVPLQAWHPAKEMISKQAGDSSSHRQQGITDEKTFKALKEEGNQCVNDKNYKDALSKYSECLKINNKECAIYTNRALCYLKLCQFEEAKQDCDQALQLADGNVKAFYRRALAHKGLKNYQKSLIDLNKVILLDPSIIEAKMELEEVTRLLNLKDKTAPFNKEKERRKIEIQEVNEGKEEPGRPAGEVSMGCLASEKGGKSSRSPEDPEKLPIAKPNNAYEFGQIINALSTRKDKEACAHLLAITAPKDLPMFLSNKLEGDTFLLLIQSLKNNLIEKDPSLVYQHLLYLSKAERFKMMLTLISKGQKELIEQLFEDLSDTPNNHFTLEDIQALKRQYEL
Turning to B6, the “TSA Expression Rate (ER)” value (BREAST) is reported as 31%; the “TSA Expression Rate (ER)” value (HCC) is 11%; the “TSA Expression Rate (ER)” value (LUNG) was 71%; the “TSA Expression Rate (ER)” value (OVARIAN) is reported as 31%; the “TSA Expression Rate (ER)” value (PANCREATIC) is recorded as 93%. The “Expression Rate (ER) %” value is 55% (TSA expression rate in CRC), 7% under setting [5], 11% (TSA expression rate in Kidney) and 27% under setting [10].
